Measurements as given in the nanobody polyreactivity screen of Harvey et al. (2022).

Assay: yeast display, Sf9 membrane polyspecificity reagent, FACS + sequencing; frameworks hold sequencing errors
In short: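 Nanobodies from a synthetic yeast display library (Saccharomyces cerevisiae BJ5465), induced 36–48 hours with galactose, were stained 1 hour at 4 °C with 10% biotinylated, detergent-solubilized Sf9 membrane reagent, enriched on streptavidin microbeads, then FACS-sorted. Anti-HA (expression) and streptavidin (reagent binding) fluorescence set low and high (top ~1%) gates. Polyreactivity labels come from the gate of origin. Genes were colony-PCR amplified, MiSeq 2 × 250 sequenced and filtered by CDR length.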

| Sequence | polyreactivity (PSR sort gate) |
| --- | --- |
| QVHLVESAGGLVQAGGSLRLTCAASGSTFLFYAMGMYRQAPGKERELVAAISRSGTSTYYADSVKGRFTISRDNAKNTVYLQMNSLKPEDTAVYYCAADDYGGYYYWGQGTQVTVSS | high polyreactivity |
| QVQLVESGGGLVQAGGSLRLSCAASGRIFSGSVMGWYRQAPGKVRELVAGITYRDGSTYYADSVKGRFTISRDNAKNTVYFQMNSLKPEDTAVYYCNADDYNDIPYDYWGQGTQVTVSS | low polyreactivity |
| QVQLVESGGGLVQAGGSLRLSCAASGSIYTWYAMVWYRQAPGKERELVAAITRGGSTYADSVKGRFTISRDNAKNTVFLQMNSLKPEDTAVYYCATDLQPRSFLYWYNYWGQGTQVTVSS | low polyreactivity |
| QVQLVETGGGLVQAGGSLRLSCAASGITFVKYAMGWYRQAPGKERELVAAISGSGGSTSYADSVKGRFTISRDNAKNTVYLQMNSLKPEDTAVYYCNKAIVRYPKTRDYWGQGTQVTVSS | low polyreactivity |
| QVQLVESGGGLVQEGGSLRLSCAASGSSFCSYAMGRYRQAPGKERELVAAISSSGDSTYADSVKGRFTMSRDNAKNTVYLQMNSLKPEDTAVYYCAVGGAGSDDYWGQGTQVTVSS | low polyreactivity |
| QVQLVESGGGLVQAGGSLRLSCAASGSIFSLNAMGWYRQAPGKEREFVAASGGGSTYYADSVKGRFTISRDNAKNTVYLQMNSLKPEDCAVYYCAARVLTDELDYWGQGTQVTVSS | low polyreactivity |
| QVQLVESGGGLDQAGGSLRLSCAASGFTLHSYALGWYRQAPGKERELVAAITTGGSTYYADSVKGRFTISRDNAKNTVYLQMNSLKPEDTAVYYCAAEDPGPYGGYVYWGQGTQVTVSS | low polyreactivity |
| QVQLVESGGGLVQAGGSLRLRCAASGRTFHAYVMGWYIQAPVKERELVADISSGGDTYADSVKGRFTISRDNAKNTVYLQMNSLKPEDTAVYYCAVDLIQDESGYWGQGTQVTVSS | low polyreactivity |
| QVQLVESGGGLVQAGGSLRLSCAASGRIFYVYAMGRYRQAPGKERELVAAINWSGDSTYYADSVKGRFTISRDNAKNTVYLQLNSLKPEDTAVYYCARARPTGYNYWGQGTQVTVSS | high polyreactivity |
| QVQRVESGGGLVQAGGSLRLSCAASGFTFYRYAMGWYRQAPGKEREFVAVINIRGSTTYYADSVKGRFTISRDNAKNTVYLQMNSLKPEDTAVYYCARRYRGPYYSLPRRKEFDYWGQGTQVTVSS | high polyreactivity |
| QVQLVESAAGLVQAGGSLRLSCAASGSTFGHYTMGWYRQAPGKERDLVAAISWSGGRTYYADSVKGRFTISRDYAKNTVYLQMNSLKPEDTAVYYCYVGYRGWSVNSWGQGTQVTVSS | high polyreactivity |
| QVQLVESGGGLVQAGGSLRLSCAASGSIFPYYAMGWYRQAPGKEREFVAAITISGGSTYYADSVKGRFTISRDNAKNTVYLQMNSLKPEDTAVYYCAVDRGISVGYTRFDYWGKGTQVTVSS | low polyreactivity |
| QVQLVESGGGLVQAGGSLRLSCAASGIIFARYAMGWYRQAPGKERELVAAITRRAVSTYYADSVKGRFTISRDNAKNTVYLQMNSLKPEDTAVYYCAADRASYFTYAYGYWGQGTQVTVSS | high polyreactivity |
| QVQLVESGGGLVQAGGSLSLSCAASGSNFVKNAMGWYRPAPGKERELVATISTGGSTYYADSVKGRFTISRDNAKNTVYLQMNSLKPEDTAVYYCATDFYPRFLLRSYRPYYYWGQGTQVTLSS | low polyreactivity |
| QVQLVESGGGLLQAGGSLRLSCAASGITFERNGMGWYRQAPGKERELVAAIRSGGSTYYADSVKGRFTISRDNAKNTVYLQMNTLKPEDTGVYYCAAVTQGGYTYLGDYWGQGTQVTVSS | low polyreactivity |
| QVQLVESGGGLVQAGGSLRLSCAASGRTLFWNAMGWYRQAPGKEREFVAAIRWRGGSTYYADSVKGRFTISRDNAKNTVYLQMNSLKPEDTAVYYCGAAVRPYKRQDDYWGQGTQVSVSS | high polyreactivity |
| QVQLLESGGGLVQAGGSLRLSCAASGSIFYPYALGWYRQAPGKERELVAGISRSGASTYYADSVKGRFTISRDKAKNTVYLQMNSLKPEDTAVYYCAADDWTRNYWGQGTQVTVSS | low polyreactivity |
| QVQLVESGGGLVQAGGSLRLSCASSGRIFGSYAMGWYRQAPGKERELVAAISWRGTSTYYADSVKGRFTISRDNAKNTVYLQMNSLKPEDTAVYYCAARGLWPYDYWGQGTQVTVSS | low polyreactivity |
| QVQLVESGGGLVQAGGSLRLSCAASGSTFTYNAMGWYRQAPGKERELVAAITGRGGSTYADSVKGRFTISRDNAKNTVYLQMNSLKPEDTAVYYCAARRPYGYRWHTSVPSLDYWGQGTQVTVSS | low polyreactivity |
| QVQLVESGGGLVQAGGSLRLSCAASGSIFPTYAMGCYRQAPGKERELVAAIRSGSNTYYADSVKGRFTISRDNAKNTVYLQMNSLKPEDTAVYYCNVGPQRKYPGRRTVPFGYWGQGTQVTVSS | low polyreactivity |
| QVQLVESGGGLVQAGGSLRLSCAASGSIFIYNAMGWYRPAPGKETEFVDTINSGTVTKYADSVKGRFTISRDNAKNTVYLQMNSLKPEDTAVYYCATVFDRQYSTQYQVSRYDYWVQGTQVTVSS | low polyreactivity |
| QVQLVESGGGLVQAGGSLRLSCAASGHIYFYYTMGWYRQAPGKERDLVAGITIGGSTNYADSVKGRFTISRDNAKNTVYLQMNSLKPEDTAVYYCNVVKYVYIYSYWEYYYWGQGTQVTVSS | low polyreactivity |

| Sequence | polyreactivity (PSR sort gate) |
| --- | --- |
| QVQLVESVGGLVQAGGSLRLSSAASGRIFSYKVMGWYRQAPGKESELVAAITSNDGSTYYADSVKGRFTISRDNAKNTVYLQMNSLKPVDTADYYCNADYGPVSLNEPFRDDYWGQGTQVTVSS | low polyreactivity |
| QVQLVESGGGLVQAGGSLRLSCAASGNIFSKYAMGWYRQAPGKERELVAAISRSGGRTYYADSVKGRFTISRDNAKNTVYLQMNSLNPEDTAFYYCNKAQRHYPYDYWGQGTQVTVSS | high polyreactivity |
| QVQLVESGGGLVQAGGSLRLSCAASGSISSYAMGWSRQAPGKERELVASITWHGGGTYYADSVKGRFTISRDNAKNTVYLQMNSLKPEDTAVYYCAKDNYLDPPYFYRFAGYDYCGQGTQVTVSS | low polyreactivity |
| QVQLVESGGGLVQAGGSLRLSCAASGLTFPGYAMGWYRQAPVKERELVAAISYSSGSTYYADSVKGRFTISRDNAKNTVYLQMNILKQEDTEVYYCNRVYRFRGITELDYWGQGTQVTVSS | high polyreactivity |
| QVQLVESGGVLVQAGGSLRLSCAASGRTFSVYTMGWYRQAPGKERELVASINWSGGRTYYADSVKGRFTISRDKAKNTVYLQMNSLKPEDTAVYYCAATGWRTLYDYWGQGTQVTVSS | high polyreactivity |
| QVQLVESGGGLVQAGGSLRLSCAASGRTFTYYAMGWYRQAPGKERELVAAIRYTGGSTHYADSVKGRFTISRDNAKNTVYLQIHSLKPEDTAVYYCGARRAYTRGGTVYFGYYYWGQGTQVTVSS | high polyreactivity |
| QVQLLESGGGLVQAGGSLRLSCAASGRTFEYYAMGWYRQAPGKERELDAAITSGGITYYADSVKGRFTISRDNAKITVYLQMNSLKPEDSAVYYCAAKGWYFGYGRYGYWGQGTQVTVSS | high polyreactivity |
| QVQLVESGGGLVQAGGSLRLSCAASGIFSYYAMGWYRQAPGKERELVAAISSSGGSTYYADSVKGRFTISRDNAKNTVYLQMNSLKPEDTAVYYCNVRNYYNDYYYWGQGTQVTVSS | high polyreactivity |
| QVQLVESGGGLVQAGGSLRLSCAASGFTHDWYAMGWYRQAPGKERELVAAIWSAGTTYYADSVKGRFTISRDNAMNTVYLQMNSLKPEDPAVYYCATVSDYDFGLYDYWGQGTQVTVSS | low polyreactivity |
| QVQLVESGGGLVQAGGSLRLSCAASGIIFGRYTMGWSRQAPGKERELVAAITSSGITYYADSVKGRFTISRDNAKNTVYLQMNSLKPEDTAVYYCIADYSSPGYYWPYDYWGQGTQVTVSS | low polyreactivity |
| QVQLVESGGGLVQAGGSLRLSCAASGRIFGGYAMGWYRQAPGKERELVAAISSSGGRTYYADSVKGRFTISRDNAKNTVYLQMKSLKPEDTAVYYCNAGAGQRVSGHSFEYWGQGTQVTVSS | high polyreactivity |
| QVQLVESGGGLVQAGGSLRLSCAASGFTFDTYAMGWYRQAPGKERELVAAISWSGGSTYYADSVKGRFTISRDNAKNTVYLQMNSLKPEDTAVYYCAAETPVDWWSTSYNYWGQGTQVTVSS | high polyreactivity |
| QVQLVESGGGIVQAGGSLRLSCAASGRTFNFYAMGWYRQAPGKERELVAAIRKSGASTYYADSVKGRFTISRDNAKNTVYLQMNSLKPEDTAVYYCAADGQVSYALGFDYWGQGTQVTVSS | high polyreactivity |
| QVQLVESGGGLVQAGGSLRLSCAASGITFLKYAMGWYRQATGKEREFVAAISRRGGSTYYADSVKGRFTISRDNAKNTVYLQMNSLKPEDTAVYYCAALTVRGTWSQNDYWGQGTQVTVSS | low polyreactivity |
| QVQLVESGGGLLQAGGSLRLSCASSGRIFRWNAMGWYRQAPGKERELVAAISARGGSTYYADSVKGRFTISRDNAKNTVYLQMNSLKPEDTAVYYCAKVSSRGFDYWGQGTQVTVSS | high polyreactivity |
| QVQHVESGGGLVQAGGTLRLSSAASGSTYRWYAMGSYRQAPGKERELVAAITFRGGRTYYADSVKGRFTISRDNAKNTVYLQMNSLKPEDTAVYYFNAVTYSSPYRFDYWGQGTQVTVSS | low polyreactivity |
| QVQLVESGGGLVQAGGSLGLSCAASGSTFLHDAMGWYRQAPGKERELVAAISVSGVRTYYADSVKGRFTISRDNGKNTVYLQMNSLKPEDTAVYYCAADGHHADYDFWGQGTQVTVSS | low polyreactivity |
| QVQLVESGGGLVQAGGSLRLSCAASGGTFRVYAMGWYRQAPGKERELVASISWTVGGTYADSVKGRFTISRDNAKNTVYLQMNSLKPEDTAVYYCAAGGEWVNPYFPSSLDYWGQGTQVTVSS | low polyreactivity |
| QVQLVESGGGLVQAGGSLRLSCASSGRTFYIYDMGWYRQAPGKERELVAAITSVGSTNYADSVKGRFTISRDNAMNTVYLQMNSLKPEDTAVYYCAAESTVGTSGDYDYWGQGTQVTVSS | low polyreactivity |
| QVQIVESGGGLVQAGGSLRLTCAASGRTFYGNAMGWYRQAPGKERDLVADISSRSSSTSYADSVKGRFTISRDNAKYSVYFQMNSLKPEDTAVYYCATRYGYRTWYGYNYWGQGTQVTVSS | high polyreactivity |
| QVQHVESGGGLVQAGGSLRLSCAASGSTFGYNDMGRYRQAPGKERELVAAIDTGVSTNYADSVKGRFTISRDNAKNTVYLQMNSLKPEDTAVYYCAKSGSAYWHSGWSVGFDYWGQGTQVTVSS | low polyreactivity |
